Results published in patent publication US20240352111A1 (Regeneron, published 2024).

T1: hArtemin-MMH (human)
T1 construct: also called hARTN.mmh; hARTN (A108-G220).mmh
T1 chain: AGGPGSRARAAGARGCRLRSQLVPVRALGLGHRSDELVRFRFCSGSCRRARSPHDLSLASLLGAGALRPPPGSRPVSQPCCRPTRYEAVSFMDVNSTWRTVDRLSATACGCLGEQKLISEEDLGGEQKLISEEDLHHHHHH

T2: mArtemin-MMH (mouse)
T2 construct: also called msArtemin-MMH; msARTN.mmh
T2 chain: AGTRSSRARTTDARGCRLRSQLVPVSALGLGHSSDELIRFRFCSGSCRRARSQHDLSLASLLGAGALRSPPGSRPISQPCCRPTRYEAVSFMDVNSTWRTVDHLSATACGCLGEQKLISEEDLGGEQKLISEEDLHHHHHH

T3: MfArtemin-MMH (cynomolgous monkey (Macaca fascicularis))
T3 chain: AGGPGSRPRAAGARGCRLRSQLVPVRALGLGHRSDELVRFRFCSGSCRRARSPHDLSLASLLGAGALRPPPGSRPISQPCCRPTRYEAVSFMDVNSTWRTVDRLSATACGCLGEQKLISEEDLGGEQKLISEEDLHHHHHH

B1: H4H33349P (antibody, human IgG4 S228P, kappa, V domains shown)
VH: QVQLVESGGGVVQPGRSLRLSCEASGFTFSDYDLHWVRQAPGKGLEWVAFISNDGSNEYYPKSVKGRFSISRDNSKNTLYLQMNSLRAEDTAVYHCTKERDYYYDSSGSLDYWGQGTLVTVSS
VL: DIQMTQSPSSLSASVGDRVTITCRASQTINNYLNWYQQKPGKAPKLLIYTTSGLQSGVPSRFSGRGSGTDFTLAISSLQPEDFATYYCQQSYHSPFTFGPGTKVDIKR
notes: Fully human antibody; also called Artemin mAb; anti-ARTN antibody
B2: H4H33336P (antibody, human IgG4 S228P, kappa, V domains shown)
VH: QVQLVESGGGVVQPGRSLRLSCVASGFILSHYGMHWVRQAPGKGLEWVAVIWFDGTNKYYADSVKGRFTVSRDNSKNTLYMQMNSLRAEDTAVYYCARDPPPARRGNYNGMDVWGQGTTVTVSS
VL: DIQMTQSPSSLSASVGDRVTITCRASQDIRNDLGWYQQKPGKAPKRLIFGASSLQSGVPLRFSGSGSGTEFTLTINNLQPEDFATFYCLQDNSYPWTFGQGTKVEIKR
notes: as for B1
B3: H4H33331P (antibody, human IgG4 S228P, kappa, V domains shown)
VH: EVQLVESGGDLVQPGGSLKLSCAASGFTFSGSAMHWVRQASGKGLEWVGRIRNKVHRYATEYGASVKGRFTISRDDSKNTAYLQMNSLKIEDTAVYYCVVVVPGSIEAFDIWGQGTMVTVSS
VL: DIQMTQSPSSLSASVGDRVTITCRASQSISTYLNWYQQKPGKAPNLLIYAASTLESGVPSRFSGSGSGTDFTLTISSLQPEDFEIYYCQQSYNIPWTFGQGTKVEIKR
notes: Fully human antibody (human variable and constant domains) from a VELOCIMMUNE mouse; also called Artemin mAb; anti-ARTN antibody

How the values were obtained:
hArtemin-MMH [1] = molecular target: T1, hArtemin-MMH; assay: SPR Biacore T200, hArtemin-MMH captured by anti-myc mAb, mAb injected, 25 C
Protocol: (§1) The equilibrium dissociation constant (KD) for Artemin binding to each of Artemin monoclonal antibodies (mAbs) H4H33331P, H4H33335P, H4H33336P, and H4H33349P was determined using a real-time surface plasmon resonance Biacore T200 biosensor. All binding studies were performed in 10 mM HEPES, 150 mM NaCl, 3 mM EDTA, and 0.05% v/v Surfactant Tween-20, pH 7.4 (HBS-ET) running buffer at 25° C. The Biacore CM4 sensor chip surface was first derivatized by amine coupling with anti-myc mAb to capture hArtemin-MMH, MfArtemin-MMH, or mArtemin-MMH. Different concentrations of Artemin mAbs (60-2.2 nM, 3-fold serial dilution) prepared in […] running buffer were injected over the Artemin-captured surfaces for 3 min at a flow rate of 50 μL/min and their dissociation in HBS-ET running buffer was monitored for 5 minutes. At the end of each cycle, the Artemin-captured surfaces were regenerated using a 6 sec injection of 20 mM phosphoric acid.
(§2) The association rate (kₐ) and dissociation rate (kd) were determined by fitting the real-time binding sensorgrams to a 1:1 binding model with mass transport limitation using Scrubber 2.0c curve-fitting software. Binding dissociation equilibrium constant (KD) and dissociative half-life (t½) were calculated from the kinetic rates as: KD (M)=kd/kₐ, and t_{1/2} (min)=[In2/(60*kd)].

mArtemin-MMH [2] = molecular target: T2, mArtemin-MMH; assay: BLI (Octet HTX), mAb captured on AHC tips, artemin at 30 nM, 25 C
Protocol: (§3) The entire experiment was performed at 25° C. in 10 mM HEPES, 150 mM NaCl, 3 mM EDTA, 0.02% NaN3 and 0.05% v/v Surfactant Tween-20, 1 mg/mL BSA, pH7.4 (HBS-EBT) buffer with the plate shaking at a speed of 1000 rpm. Different Artemin mAbs were first captured onto anti-human antibody (AHC) coated Octet biosensor tips (Fortebio Inc, #18-5064) by submerging the biosensor tips for 40 seconds in wells containing 2 μg/mL of Artemin mAb. […] All the Artemin and Artemin mAb samples were prepared in HBS-EBT buffer. The real-time binding response was monitored during the entire course of the experiment and the binding response at the end of every step was recorded.

hArtemin-MMH [3] = molecular target: T1, hArtemin-MMH; assay: as above
Protocol: as §3

MfArtemin-MMH [4] = molecular target: T3, MfArtemin-MMH; assay: cell-based or functional assay
mArtemin-MMH [5] = molecular target: T2, mArtemin-MMH; assay: cell-based or functional assay
hArtemin-MMH [6] = molecular target: T1, hArtemin-MMH; assay: cell-based or functional assay
mArtemin-MMH [7] = molecular target: T2, mArtemin-MMH; assay: SPR Biacore T200, mArtemin-MMH captured by anti-myc mAb, mAb injected, 25 C
Protocol: as §1, §2

hArtemin-MMH [8] = molecular target: T1, hArtemin-MMH; assay: blocking ELISA, antibody blocks 75 pM hARTN.mmh binding to plate-coated hGFRa3.hFc
Protocol: (§4) Experiments were carried out using the following procedures. Plates were coated with hGFRa3.hFc at 2 μg/ml in PBS on a 96-well microtiter plate at 4° C. overnight for all three assays. […] In other microtiter plates, a constant amount of either 75 pM hARTN.mmh, 400 pM mfARTN.mmh, or 150 pM msARTN.mmh were separately bound with anti-ARTN antibodies and an irrelevant IgG4 antibody control at a serial dilution series from 0.0017 nM to 100 nM in PBS+0.5% BSA. After a one-hour incubation, the mixture solutions were transferred to microtiter plates coated with hGFRa3.hFc. After one hour of incubation at RT, the wells were washed with PBST, and plate-bound ARTN was detected with an anti-penta-His antibody conjugated with horseradish peroxidase (HRP) (Qiagen). The plates were then developed using TMB substrate solution (BD Biosciences, #555214) according to manufacturer's recommendation and absorbance at 450 nm was measured on a Victor X5 plate reader.
(§5) Binding data were analyzed using a sigmoidal dose-response model within Prism™ software (GraphPad). […] If the calculated IC50 value was below the LLOA, less than LLOA was reported. Percent blocking at 100 nM antibody was calculated based on the background-corrected binding signal observed at the highest antibody concentration tested using the formula listed below and reported for all tested antibodies: […]

MfArtemin-MMH [9] = molecular target: T3, MfArtemin-MMH; assay: blocking ELISA, antibody blocks 400 pM mfARTN.mmh binding to plate-coated hGFRa3.hFc
Protocol: as §4, §5

mArtemin-MMH [10] = molecular target: T2, mArtemin-MMH; assay: blocking ELISA, antibody blocks 150 pM msARTN.mmh binding to plate-coated hGFRa3.hFc
Protocol: as §4, §5

MfArtemin-MMH [11] = molecular target: T3, MfArtemin-MMH; assay: BLI (Octet HTX), mAb captured on AHC tips, artemin at 7.5 nM, 25 C
Protocol: as §3

mArtemin-MMH [12] = molecular target: T2, mArtemin-MMH; assay: as above
Protocol: as §3

hArtemin-MMH [13] = molecular target: T1, hArtemin-MMH; assay: as above
Protocol: as §3

Row | Binder | 60 nM Artemin mAb Bound (RU) (hArtemin-MMH [1]) | Kd (hArtemin-MMH [1]) | koff (hArtemin-MMH [1]) | kon (hArtemin-MMH [1]) | t½ (hArtemin-MMH [1]) | Artemin Binding Response (nm) (mArtemin-MMH [2]) | Artemin Binding Response (nm) (hArtemin-MMH [3]) | Max inhibition (%), SRE-luciferase reporter, 3 nM mfArtemin (MfArtemin-MMH [4]) | Max inhibition (%), SRE-luciferase reporter, 1 nM mArtemin (mArtemin-MMH [5]) | Max inhibition (%), SRE-luciferase reporter, 500 pM hArtemin (hArtemin-MMH [6]) | 60 nM Artemin mAb Bound (RU) (mArtemin-MMH [7]) | Kd (mArtemin-MMH [7]) | koff (mArtemin-MMH [7]) | % Blocking with 100 nM Ab (hArtemin-MMH [8]) | IC50 (hArtemin-MMH [8]) | % Blocking with 100 nM Ab (MfArtemin-MMH [9]) | % Blocking with 100 nM Ab (mArtemin-MMH [10]) | Artemin Binding Response (nm) (MfArtemin-MMH [11]) | Artemin Binding Response (nm) (mArtemin-MMH [12]) | Artemin Binding Response (nm) (hArtemin-MMH [13]) | also measured
1 | B1 | 18 RU | 0.119 nM | 5.9e-05 s⁻¹ | 497000 M⁻¹ s⁻¹ | 3.27 h | 0.11 nm | 0.11 nm | 100% | 100% | 100% | 20 RU | 0.113 nM | 5.91e-05 s⁻¹ | 95% | 0.128 nM | 88% | 88% | 0.04 nm | 0.11 nm | 0.11 nm | kon (mArtemin-MMH [7]): 521000 M⁻¹ s⁻¹; t½ (mArtemin-MMH [7]): 3.25 h
2 | B2 | 15 RU | 0.15 nM | 3.75e-05 s⁻¹ | 249000 M⁻¹ s⁻¹ | 5.13 h | 0.03 nm | 0.12 nm | 100% | 100% | 100% | 3 RU |  |  | 93% | 0.161 nM | 86% | 81% | 0.01 nm | 0 nm | 0.05 nm | IC50 (mArtemin-MMH [10]): 0.41 nM
3 | B3 | 7 RU | 2.91 nM | 0.000366 s⁻¹ | 126000 M⁻¹ s⁻¹ | 0.533 h | 0.1 nm | 0.11 nm | 100% | 100% | 100% | 7 RU | 0.346 nM | 5.4e-05 s⁻¹ | 88% | 0.38 nM | 90% | 83% | 0.01 nm | 0.07 nm | 0.07 nm | kon (mArtemin-MMH [7]): 156000 M⁻¹ s⁻¹; t½ (mArtemin-MMH [7]): 3.57 h; IC50 (MfArtemin-MMH [9]): 0.105 nM
